Assay results from PMC11148069 (2024).

Assays:
xNup93-Nb1t = test: BLI
xhNup93-Nb3t = test: BLI

B1: recombinant Xenopus Nup93 target (BLI) (natural protein)
chain: MDGEGFGELLQQAEQLAAETEGVTELPHVERNLQEIQQAGERLRSKTMTRTSQESANVKASVLLGSRGLDISHISQRLESLSAATTFEPLEPVKDTDIQGFLKNEKDNALLSAIEESRKRTFVMAEEYHRESMLVEWEQVKQRVLHTLLASGEDALDFTQESETSYISESGAPGRSSLDNVEMAYARQMYMYNEKVVSGHLQPSLVDLCTEAAERLDDKNVSDLWVMVKQMTDVPLIPASDTLKSRCSGQMQMAFVRQALNYLEQSYKNYTLISVFANLQQAQLGGVPGTYNLVRSFLNIRLPTPIPGLQDGEIEGYPVWALIYYCMRCGDLMAAQQVVNRAQHQLGDFKNCFQEYIHNKDRRLSPTTENKLRLHYRRAVRASTDPYKRAVYCIIGRCDVSDNHSEVADKTEDYLWLKLSQVCFEDEANSSPQDRLTLPQFQKQLFEDYGESHFAVNQQPYLYFQVLFLTAQFEAAIAFLFRLERTRCHAVHVALALFELKLLLKSTGQSAQLLSQEPGEPQGVRRLNFIRLLMLYTRKFEPTDPREALQYFYFLRNEKDNQGESMFLRCVSELVIESREFDMLLGKLEKDGSRKPGAIDKFTRDTKTIINKVASVAENKGLFEEAAKLYDLAKNPDKVLELTNKLLSPVVSQISAPQSNRERLKNMALAIAERYKSQGVSAEKSINSTFYLLLDLITFFDEYHAGHIDLSFDVIERLKLVPLSQDSVEERVAAFRNFSDEIRHNLSEILLATMNILFTQYKRLKGSGPTTLGRPQRVQEDKDSVLRSQARALITFAGMIPYRMSGDTNARLVQMEVLMN
Kd (xNup93-Nb1t): 0.1 nM
Kd (xhNup93-Nb3t): < 0.01 nM
